This note sets out measurements from IntAct's records for PubMed 25465129.

Sequences and labels used below:
B1: Ras-associated and pleckstrin homology domains-containing protein 1 (Homo sapiens), Q70E73 (parent)
chain: MEQLSDEEIDHGAEEDSDKEDQDLDKMFGAWLGELDKLTQSLDSDKPMEPVKRSPLRQETNMANFSYRFSIYNLNEALNQGETVDLDALMADLCSIEQELSSIGSGNSKRQITETKATQKLPVSRHTLKHGTLKGLSSSSNRIAKPSHASYSLDDVTAQLEQASLSMDEAAQQSVLEDTKPLVTNQHRRTASAGTVSDAEVHSISNSSHSSITSAASSMDSLDIDKVTRPQELDLTHQGQPITEEEQAAKLKAEKIRVALEKIKEAQVKKLVIRVHMSDDSSKTMMVDERQTVRQVLDNLMDKSHCGYSLDWSLVETVSELQMERIFEDHENLVENLLNWTRDSQNKLIFMERIEKYALFKNPQNYLLGKKETAEMADRNKEVLLEECFCGSSVTVPEIEGVLWLKDDGKKSWKKRYFLLRASGIYYVPKGKAKVSRDLVCFLQLDHVNVYYGQDYRNKYKAPTDYCLVLKHPQIQKKSQYIKYLCCDDVRTLHQWVNGIRIAKYGKQLYMNYQEALKRTESAYDWTSLSSSSIKSGSSSSSIPESQSNHSNQSDSGVSDTQPAGHVRSQSIVSSVFSEAWKRGTQLEESSKARMESMNRPYTSLVPPLSPQPKIVTPYTASQPSPPLPPPPPPPPPPPPPPPPPPPPLPSQSAPSAGSAAPMFVKYSTITRLQNASQHSGALFKPPTPPVMQSQSVKPQILVPPNGVVPPPPPPPPPPTPGSAMAQLKPAPCAPSLPQFSAPPPPLKIHQVQHITQVAPPTPPPPPPIPAPLPPQAPPKPLVTIPAPTSTKTVAPVVTQAAPPTPTPPVPPAKKQPAFPASYIPPSPPTPPVPVPPPTLPKQQSFCAKPPPSPLSPVPSVVKQIASQFPPPPTPPAMESQPLKPVPANVAPQSPPAVKAKPKWQPSSIPVPSPDFPPPPPESSLVFPPPPPSPVPAPPPPPPPTASPTPDKSGSPGKKTSKTSSPGGKKPPPTPQRNSSIKSSSGAEHPEPKRPSVDSLVSKFTPPAESGSPSKETLPPPAAPPKPGKLNLSGVNLPGVLQQGCVSAKAPVLSGRGKDSVVEFPSPPSDSDFPPPPPETELPLPPIEIPAVFSGNTSPKVAVVNPQPQQWSKMSVKKAPPPTRPKRNDSTRLTQAEISEQPTMATVVPQVPTSPKSSLSVQPGFLADLNRTLQRKSITRHGSLSSRMSRAEPTATMDDMALPPPPPELLSDQQKAGYGGSHISGYATLRRGPPPAPPKRDQNTKLSRDW
B2: Amyloid beta A4 precursor protein-binding family B member 1-interacting protein (Mus musculus), Q8R5A3 (parent)
chain: MGESNEDIDQMFSTLLGEMDLLTQSLGVDTLPPPDPNPPREEFNYTVGFKDLNESLNALEDQDLDALMADLVADISEAEQRTIQAQKESSQNQDRFALLRASDGQGTASGGYGASAAAIDVSHHEEALPPPPVEPMLDLLPPPPPPPPPELLSKEEEEAKAKADKIKLALEKLKEAKVKKLVVKVHMDDSSTKSLMVDERQLARDVLDNLFEKTHCDCNVDWCLYEIYPELQIERVFEDHENVVEVLSDWTRDTENKVLFLEKEERYAVFKNPQNFYLDNKGKKENKETNEKMNAKNKEYLLEESFCGTSIIVPELEGALYLKEDGKKSWKRRYFLLRASGIYYVPKGKTKTSRDLACFIQFENVNIYYGIQCKMKYKAPTDHCFVLKHPQIQKESQYIKYLCCDDARTLSQWVMGIRIAKYGKTLYDNYQRAVARAGLASRWTNLGTVGTPMPAQPSTVSSGLKTGTSQPNGQMPQAIPSAGPPLQEAQTQIETTKDEKQGLGNHSPGATRENHRPKSSLPPPPPPVRRSSDTCGSPALPSKVKGPGTCTFPHPPENFLPPPPPPPPEEDNSGLLPPPPPPPYLEEPPDFVPPPPPPAAVEDSALPPPPPPPPCLSQEITKSSPLPPKKPLVPPKRQENQGLPGAPGNSEQDFMSDLMKALQKKRGNIP

The variants in the first test derive from B1. Particulars: with tln1_mouse Tln1, P26039.
tln1_mouse Tln1, P26039, sequence (P26039 whole entry): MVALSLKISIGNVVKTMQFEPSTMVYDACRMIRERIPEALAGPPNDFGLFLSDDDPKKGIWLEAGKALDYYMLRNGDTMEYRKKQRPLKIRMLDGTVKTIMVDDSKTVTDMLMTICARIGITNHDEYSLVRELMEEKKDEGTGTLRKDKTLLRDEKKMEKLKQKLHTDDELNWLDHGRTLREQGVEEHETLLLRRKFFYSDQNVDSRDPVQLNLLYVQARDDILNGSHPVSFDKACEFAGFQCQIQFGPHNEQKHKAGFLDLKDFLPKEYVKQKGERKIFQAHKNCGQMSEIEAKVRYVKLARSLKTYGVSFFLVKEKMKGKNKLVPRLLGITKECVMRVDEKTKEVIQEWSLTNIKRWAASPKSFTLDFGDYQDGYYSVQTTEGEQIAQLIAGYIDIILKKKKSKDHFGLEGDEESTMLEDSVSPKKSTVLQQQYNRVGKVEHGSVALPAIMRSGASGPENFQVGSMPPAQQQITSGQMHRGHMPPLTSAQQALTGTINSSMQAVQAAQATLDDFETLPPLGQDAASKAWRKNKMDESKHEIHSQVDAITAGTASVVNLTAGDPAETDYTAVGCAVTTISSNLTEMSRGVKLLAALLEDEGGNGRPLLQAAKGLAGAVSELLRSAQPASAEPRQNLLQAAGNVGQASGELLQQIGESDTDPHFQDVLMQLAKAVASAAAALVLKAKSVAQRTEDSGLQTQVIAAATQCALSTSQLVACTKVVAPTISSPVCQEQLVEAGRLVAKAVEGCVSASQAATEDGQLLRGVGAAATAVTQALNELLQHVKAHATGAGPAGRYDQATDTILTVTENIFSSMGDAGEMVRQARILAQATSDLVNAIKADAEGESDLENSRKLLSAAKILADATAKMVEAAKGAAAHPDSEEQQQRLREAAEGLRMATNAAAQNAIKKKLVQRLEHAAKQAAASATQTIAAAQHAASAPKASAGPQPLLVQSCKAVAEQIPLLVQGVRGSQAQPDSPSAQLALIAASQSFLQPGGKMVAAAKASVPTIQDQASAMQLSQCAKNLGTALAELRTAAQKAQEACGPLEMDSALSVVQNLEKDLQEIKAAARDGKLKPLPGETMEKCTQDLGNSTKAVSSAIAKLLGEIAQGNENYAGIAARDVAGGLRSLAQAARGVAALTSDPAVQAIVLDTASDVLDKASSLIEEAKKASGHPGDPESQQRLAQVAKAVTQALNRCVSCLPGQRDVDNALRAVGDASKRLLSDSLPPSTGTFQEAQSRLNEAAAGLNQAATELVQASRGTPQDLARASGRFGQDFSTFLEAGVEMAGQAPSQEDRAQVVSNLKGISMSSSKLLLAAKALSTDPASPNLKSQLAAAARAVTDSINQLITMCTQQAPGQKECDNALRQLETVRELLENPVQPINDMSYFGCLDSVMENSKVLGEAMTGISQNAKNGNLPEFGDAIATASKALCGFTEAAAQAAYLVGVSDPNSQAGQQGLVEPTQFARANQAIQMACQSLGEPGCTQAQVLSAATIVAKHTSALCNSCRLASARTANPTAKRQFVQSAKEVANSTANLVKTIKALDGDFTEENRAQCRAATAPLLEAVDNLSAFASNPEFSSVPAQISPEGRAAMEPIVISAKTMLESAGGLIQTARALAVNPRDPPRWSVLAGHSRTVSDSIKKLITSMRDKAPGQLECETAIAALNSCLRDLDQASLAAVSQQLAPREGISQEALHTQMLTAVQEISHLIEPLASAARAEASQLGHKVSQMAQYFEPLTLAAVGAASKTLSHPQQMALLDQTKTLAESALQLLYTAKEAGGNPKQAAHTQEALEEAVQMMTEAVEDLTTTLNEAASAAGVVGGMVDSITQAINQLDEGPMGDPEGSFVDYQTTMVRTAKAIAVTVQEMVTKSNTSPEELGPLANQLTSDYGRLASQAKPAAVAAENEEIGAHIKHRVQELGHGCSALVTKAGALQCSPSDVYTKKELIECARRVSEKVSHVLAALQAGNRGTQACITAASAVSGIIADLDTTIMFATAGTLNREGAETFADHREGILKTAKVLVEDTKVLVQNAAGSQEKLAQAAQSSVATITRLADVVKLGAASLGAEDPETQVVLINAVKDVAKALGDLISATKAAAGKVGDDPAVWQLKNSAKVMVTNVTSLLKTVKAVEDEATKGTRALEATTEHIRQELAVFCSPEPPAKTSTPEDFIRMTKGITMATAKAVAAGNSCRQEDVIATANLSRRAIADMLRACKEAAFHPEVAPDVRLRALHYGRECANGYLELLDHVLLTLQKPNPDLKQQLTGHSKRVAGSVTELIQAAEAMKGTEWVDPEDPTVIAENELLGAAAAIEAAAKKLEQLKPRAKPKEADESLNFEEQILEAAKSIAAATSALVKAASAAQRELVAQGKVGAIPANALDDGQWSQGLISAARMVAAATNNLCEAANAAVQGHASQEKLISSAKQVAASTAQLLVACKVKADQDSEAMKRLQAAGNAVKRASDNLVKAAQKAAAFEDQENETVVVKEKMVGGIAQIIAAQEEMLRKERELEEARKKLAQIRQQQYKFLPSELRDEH
On to G29S, for which the “effect of a mutation on the interaction” value was “increasing interaction strength”.

In another test the parent is B2. To be noted: with tln1_mouse Tln1, P26039.
For the variant S13G, the “effect of a mutation on the interaction” value is recorded as “disrupting interaction strength”.
Still for that read-out and setting: in the case of D9A it was “decreasing interaction strength”; in that of E18A, “disrupting interaction strength”; in that of L15Y, “disrupting interaction strength”.

The variants in another test derive from B2. Particulars: with tln1_mouse Tln1, P26039. This is another data set of the same source.
Turning to S13G, the “effect of a mutation on the interaction” value is listed as “decreasing interaction strength”.
